The record followed here is patent publication US20250101129A1, “AFFINITY SUBSTANCE, COMPOUND, AND ANTIBODY AND THEIR SALTS” (Ajinomoto Co., Inc., priority 2022, published 2025).

pKd: −log10 of the molar value. Some results are limits rather than exact numbers.

For assay [1], the target named is HER2 on SKBR-3 cells (HER2-positive) (UniProt P04626). The experiment in a line: flow cytometry on SKBR3 (HER2+) cells, fraction of cells in the positive gate, x axis HER2-BL-1H, Alexa Fluor 488 anti-human IgG secondary antibody. A general note: A flow cytometer gives signals particle by particle.
Assay [2] deals with PD-1 on CD3-activated human T cells (PD-1-positive) (human) (UniProt Q15116). In words: flow cytometry on CD3-activated human T cells (PD-1+), fraction of cells in the positive gate, x axis PD-1-BL-1H, Alexa Fluor 488 anti-human IgG secondary antibody.
PD-1 on CD3-activated human T cells (PD-1-positive) (human), sequence (Q15116 25-288): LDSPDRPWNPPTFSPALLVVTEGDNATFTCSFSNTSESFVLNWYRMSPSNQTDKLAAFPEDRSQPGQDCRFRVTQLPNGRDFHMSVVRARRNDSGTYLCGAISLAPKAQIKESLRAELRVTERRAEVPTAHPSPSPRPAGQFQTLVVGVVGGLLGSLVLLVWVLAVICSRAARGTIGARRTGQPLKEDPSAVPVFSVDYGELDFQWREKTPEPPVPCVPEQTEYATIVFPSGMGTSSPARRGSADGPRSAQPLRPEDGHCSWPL
Assay [3] addresses Biotinylated recombinant human FcRn (Immunitrack) (human) (UniProt P55899). The experiment in a line: SPR Biacore T200, biotinylated human FcRn on chip SA, association at pH 6.0, single cycle kinetics, 1:1 model; dissociated at pH 7.4. (In general: Surface plasmon resonance follows binding to a sensor surface in real time, without labels.)
Assay [4] addresses Recombinant human PD-1-Fc (R&D Systems), biotinylated (human) (UniProt Q15116). In words: SPR Biacore T200, biotinylated human PD-1-Fc on Biotin CAPture chip, antibody as analyte, single cycle kinetics, 1:1 model.
Assay [5] deals with EGFR on A-431 cells (EGFR-positive) (UniProt P00533). The experiment in a line: flow cytometry on A431 (EGFR+) cells, fraction of cells in the positive gate, x axis EGFR-BL-1H, Alexa Fluor 488 anti-human IgG secondary antibody.
The target is the same in assay [6]. The experiment in a line: flow cytometry on A-431 cells, Alexa Fluor 488 anti-human IgG secondary antibody.
For assay [7], the target named is Recombinant human HER2-Fc (R&D Systems), biotinylated (human) (UniProt P04626). The experiment in a line: SPR Biacore T200, biotinylated human HER2-Fc on Biotin CAPture chip, antibody as analyte, single cycle kinetics, 1:1 model.
In assay [8] the target is HER2 on SKBR-3 cells (HER2-positive) (UniProt P04626). In words: flow cytometry, primary antibody then Alexa Fluor 488 goat anti-human IgG (H+L), SKBR-3 cells; histogram peak between 10^3 and 10^4, gate from a little below 10^3.
Assay [9] addresses EGFR on A-431 cells (EGFR-positive) (UniProt P00533). In words: flow cytometry, primary antibody then Alexa Fluor 488 goat anti-human IgG (H+L), A-431 cells; histogram peak a little above 10^5, gate from a little above 10^4.
In assay [10] the target is Recombinant human HER2-Fc (R&D Systems), biotinylated (human) (UniProt P04626). In words: SPR (Biacore T200), single cycle kinetics, ligand biotinylated HER2-Fc on Biotin CAPture chip, HBS-EP+, 1:1 binding model.
In assay [11] the target is EGFR on A-431 cells (EGFR-positive) (UniProt P00533). In words: flow cytometry, primary antibody then Alexa Fluor 488 goat anti-human IgG (H+L), A-431 cells; histogram peak at about 10^5, gate from a little above 10^4.
Assay [12] deals with Recombinant human EGFR-Fc (R&D Systems), biotinylated (human) (UniProt P00533). In words: SPR Biacore T200, biotinylated human EGFR-Fc on Biotin CAPture chip, antibody as analyte, single cycle kinetics, 1:1 model.

Recombinant human PD-1-Fc (R&D Systems), biotinylated (human), sequence (Q15116 25-167 limits assumed): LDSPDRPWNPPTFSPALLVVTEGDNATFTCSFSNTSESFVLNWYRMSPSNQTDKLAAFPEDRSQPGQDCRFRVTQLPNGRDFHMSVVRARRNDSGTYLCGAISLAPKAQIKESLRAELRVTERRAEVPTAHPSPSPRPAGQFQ

With “Tri-specific antibody (Pembrolizumab Fab-Cetuximab-Trastuzumab Fab) (M-2)”, the Positive cell (%) in assay [1] stood at 97.2%; in assay [2], 21.4%; in assay [5] it was 98.9%. Further, the negative-log Kd (pKd) (as a rule, −log10 of the Kd, conventionally taken in molar units) in assay [3] is 8.62; in [4], 8.96. The same substance registered a percent of cells with fluorescence in assay [6] of over 98%.

Take “DAR1 bi-specific antibody (Trastuzumab-Cetuximab Fab) (M-4) (bispecific antibody)”: the pKd in [7] is over 11.72; in assay [3], 8.62; in [10], over 11.72. Moreover, the percent of cells in the positive gate in assay [8] was 97.9%; in assay [9], 99.6%. This substance registered a percent of cells with fluorescence in assay [6] of over 98%.

“DAR1 bi-specific antibody (Cetuximab-Trastuzumab Fab) (M-3) (bispecific antibody)”: the figures for the percent of cells in the positive gate in assay [8] and in [11] were 97.3% and 98.2%, respectively. The pKd was 9.52 in assay [12] and 8.59 in assay [3]. In assay [6], this substance had a percent of cells with fluorescence of over 98%.
